The text below walks through data of patent KR20190140944A.

In assay [1] the target is HER2 및 HER3 (ErbB-2 및 ErbB-3 양성 세포 상에 함께 발현) (human) (UniProt P04626). Description: steady-state cell affinity, 125I-labelled IgG on SK-BR-3 cells at 4 C; mean of 3 assays.
For assay [2] the target is unchanged. Description: steady-state cell affinity, 125I-labelled IgG on BT-474 cells at 4 C; mean of 3 assays.

As usually defined, the Kd is the free concentration of one partner at which half of the binding sites on the other are occupied at equilibrium, for simple one-to-one binding. On to PB4188 (bispecific antibody), for which the figures for the Kd in assay [1] and in assay [2] were 2 nM and 3.2 nM, respectively.
